Data: patent publication US20230101266A1 (GENEQUANTUM HEALTHCARE SUZHOU, published 2023)
Positions count from the first letter of the chain named.

T1: recombinant extracellular domain of human TROP2 (human, UniProt P09758 27-274)
T1 construct: extracellular domain; Commercial protein (Acrobiosystem), used as the analyte in SPR; also called Trophoblast antigen 2; GA733-1
T1 sequence (looked up): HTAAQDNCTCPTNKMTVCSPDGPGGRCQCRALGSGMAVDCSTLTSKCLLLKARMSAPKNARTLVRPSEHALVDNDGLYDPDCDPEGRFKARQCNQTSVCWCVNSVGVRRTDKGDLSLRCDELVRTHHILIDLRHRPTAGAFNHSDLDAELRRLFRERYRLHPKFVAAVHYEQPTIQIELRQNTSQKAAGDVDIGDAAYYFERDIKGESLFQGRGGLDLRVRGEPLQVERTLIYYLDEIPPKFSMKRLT

B1: Ab0054 (antibody, human IgG1, kappa, V domains shown)
VH: QVQLVQSGAEVKKPGSSVKVSCKASGYRFTDYVINWVRQAPGQGLEWMGQIYPGSDSFHYNQKFQGRATLTADKSTNTAYMELSSLRSEDTAVYYCARFFEGLAYWGQGTLVTVSS
VL: DIQMTQSPSSLSASVGDRVTITCKASQGINNYLSWYQQKPGKAPKSLIYRANRLVDGVPSRFSGSGSGTDFTLTISSLQPEDFATYYCLQYDEFPLTFGGGTKVEIKR
notes: Humanized IgG; also called Ab0001-huV5-VL / Ab0001-huV4-VH
B2: Ab0063 (antibody, human IgG1, kappa, V domains shown)
VH: B1 VH
VL: B1 VL with D56S
notes: Humanized IgG; also called Ab0001-huV8-VL / Ab0001-huV4-VH
B3: Ab0064 (antibody, human IgG1, kappa, V domains shown)
VH: B1 VH with S57T
VL: B1 VL with D56S
notes: Humanized IgG; also called Ab0001-huV8-VL / Ab0001-huV5-VH
B4: Ab0052 (antibody, human IgG1, kappa, V domains shown)
VH: B1 VH
VL: B1 VL with T69Q, F71Y
notes: Humanized IgG; also called Ab0001-huV3-VL / Ab0001-huV4-VH
B5: Ab0061 (antibody, human IgG1, kappa, V domains shown)
VH: B1 VH with S57T
VL: B1 VL
notes: Humanized IgG; also called Ab0001-huV5-VL / Ab0001-huV5-VH
B6: Ab0062 (antibody, human IgG1, kappa, V domains shown)
VH: B1 VH with S57A
VL: B1 VL
notes: Humanized IgG; also called Ab062; Ab0001-huV5-VL / Ab0001-huV6-VH
B7: Ab0053 (antibody, human IgG1, kappa, V domains shown)
VH: B1 VH
VL: B1 VL with F71Y
notes: Humanized IgG; also called Ab0001-huV4-VL / Ab0001-huV4-VH

These binders were tested against T1, recombinant extracellular domain of … (assay: SPR, Biacore 8K, antibody captured on Protein A chip, TROP2 ECD as analyte, 25 C, 1:1 model).
Procedure: Binding kinetics and affinity analysis are performed. Surface Plasmon Resonance (SPR) analysis is performed on a Biacore 8K (GE healthcare) with a Sensor Chip Protein A (GE healthcare) following manufacturer's instructions. All measurements are performed at 25° C. in the HBS-EP+ buffer (10 mM HEPES, pH 7.4, 150 mM NaCl, 3 mM EDTA, and 0.05% surfactant P20). About 110-140 RU (Resonance unit) of each of the purified antibodies is captured on flow cells 2, 4, 6, 8, 10, 12, 14, 16 (i.e., the reaction surface) of the sensor chip, respectively. Flow cells 1, 3, 5, 7, 9, 11, 13 and 15 are treated with the HBS-EP+ buffer to serve as reference surfaces.
Serial dilutions of the recombinant extracellular domain of human TROP2 (i.e., the analyte) (Acrobiosystem) (243, 81, 27, 9, 3, 1, 0.333, and 0.111 nM, respectively) are prepared in HBS-EP+ buffer. Capturing of the antibodies is followed by a three-minute injection (association phase) of serial dilutions of TROP2 at a flow rate of 30 μL/min and ten minutes of buffer flow (dissociation phase). The chip surface is regenerated by two pulses of 30-second injection of 10 mM Glycine-HCl pH 1.5 at a flow rate of 50 μL/min. The collected data are processed on a Biacore 8K Evaluation software using methods known in the art, comprising the following steps: (1) setting the response on the y-axis and the start of the injection on the x-axis to zero, (2) performing double referencing by firstly subtracting the reference surface data from the reaction surface data to get the analyte injection curves, and then subtracting the buffer injection curves from the analyte injection curves, and (3) performing the kinetic analysis using the 1:1 binding model with a global fit. The result for each antibody is presented as Ka (on-rate), Kd (off-rate) and KD (affinity constant) (Table 3).

B1 and B2 are within 1.5-fold of each other in Kd: 0.43 nM for the first, 0.46 nM for the second.

First: B3
Second: B4
The Kd of the first is 2.5-fold higher: 0.76 nM for the first, 0.31 nM for the second.

B5 and B6 are within 1.5-fold of each other in Kd: 0.62 nM for the first, 0.81 nM for the second.

Work on B7 yielded a Kd of 0.32 nM.

B1 and B2 are within 1.5-fold of each other in koff: 0.000416 s⁻¹ for the first, 0.000394 s⁻¹ for the second.

First: B3
Second: B4
The koff of the first is 1.7-fold higher: 0.000547 s⁻¹ for the first, 0.000321 s⁻¹ for the second.

B5 and B6 are within 1.5-fold of each other in koff: 0.000545 s⁻¹ for the first, 0.000719 s⁻¹ for the second.

Work on B7 yielded a koff of 0.000326 s⁻¹.

B1 and B2 are within 1.5-fold of each other in kon: 975000 M⁻¹ s⁻¹ for the first, 862000 M⁻¹ s⁻¹ for the second.

B3 and B4 are within 1.5-fold of each other in kon: 722000 M⁻¹ s⁻¹ for the first, 1.03e+06 M⁻¹ s⁻¹ for the second.

B5 and B6 are within 1.5-fold of each other in kon: 874000 M⁻¹ s⁻¹ for the first, 889000 M⁻¹ s⁻¹ for the second.

B7 showed a kon of 1.01e+06 M⁻¹ s⁻¹.
